Among the data in patent publication US20050249750A1 are IC50 values, retold here.

Experiment [1] deals with soluble DR 11 (DRB1*1101) class II molecules purified from SWEIG EBV-B cells (human) (UniProt P01903). As to the kind of experiment: peptide competition ELISA, soluble DR 11, biotinylated indicator TT831-843.
Experiment [2] concerns the target soluble DR 8 (DRB1*0801) class II molecules purified from BM9 EBV-B cells (human) (UniProt P01903). As to the kind of experiment: peptide competition ELISA, soluble DR 8, biotinylated indicator GYR(A)6L.
Experiment [3] has as its target soluble DR 2a (DRB5*0101) molecules isolated from L cells transfectant L416.3 (human) (UniProt P01903).
The target in experiment [4] is soluble DR4 (DRB1*0401) class II molecules purified from BSM or PREISS EBV-B cells (human) (UniProt P01903). As to the kind of experiment: peptide competition ELISA, soluble DR 4, biotinylated indicator UD4.
Experiment [5] has as its target soluble DR 1 (DRB1*0101) class II molecules purified from HOM-2 EBV-B cells (human) (UniProt P01903). The experiment is described as follows: peptide competition ELISA, soluble DR 1, biotinylated indicator GFK(A)7.
In experiment [6] the target is soluble DR 7 (DRB1*0701) class II molecules purified from EKR EBV-B cells (human) (UniProt P01903). As to the kind of experiment: peptide competition ELISA, soluble DR 7, biotinylated indicator GFK(A)7, pH 5.

Regarding “HA307-319 peptide derived from influenza hemagglutinin”, the half-maximal inhibitory concentration (IC50) in experiment [1] was determined as 1000 nM; in experiment [2], 5000 nM; in experiment [3] it was 30 nM; in experiment [4], 1000 nM; in experiment [5], 100 nM; in experiment [6], 100 nM.
